What was measured:
[1] = target: T1, collagen-binding, serum albumin-fused IL-4 variant (CBD-SA-IL-4) (UniProt P04275); assay: ELISA
[2] = target: T1, collagen-binding, serum albumin-fused …; assay: SPR

Kd [1]	koff [2]	Binder
0.118 nM		IL-4Rα-Fc (Fc fusion) IKVLGEPTCFSDYIRTSTCEWFLDSAVDCSSQLCLHYRLMFFEFSENLTCIPRNSASTVCVCHMEMNRPVQSDRYQMELWAEHRQLWQGSFSPSGNVKPLAPDNLTLHTNVSDEWLLTWNNLYPSNNLLYKDLISMVNISREDNPAEFIVYNVTYKEPRLSFPINILMSGVYYTARVRVRSQILTGTWSEWSPSITWYNHFQLPLIQR
	0.0056 s⁻¹	collagen III (natural protein) QYDSYDVKSGVAVGGLAGYPGPAGPPGPPGPPGTSGHPGSPGSPGYQGPPGEPGQAGPSGPPGPPGAIGPSGPAGKDGESGRPGRPGERGLPGPPGIKGPAGIPGFPGMKGHRGFDGRNGEKGETGAPGLKGENGLPGENGAPGPMGPRGAPGERGRPGLPGAAGARGNDGARGSDGQPGPPGPPGTAGFPGSPGAKGEVGPAGSPGSNGAPGQRGEPGPQGHAGAQGPPGPPGINGSPGGKGEMGPAGIPGAPGLMGARGPPGPAGANGAPGLRGGAGEPGKNGAKGEPGPRGERGEAGIPGVPGAKGEDGKDGSPGEPGANGLPGAAGERGAPGFRGPAGPNGIPGEKGPAGERGAPGPAGPRGAAGEPGRDGVPGGPGMRGMPGSPGGPGSDGKPGPPGSQGESGRPGPPGPSGPRGQPGVMGFPGPKGNDGAPGKNGERGGPGGPGPQGPPGKNGETGPQGPPGPTGPGGDKGDTGPPGPQGLQGLPGTGGPPGENGKPGEPGPKGDAGAPGAPGGKGDAGAPGERGPPGLAGAPGLRGGAGPPGPEGGKGAAGPPGPPGAAGTPGLQGMPGERGGLGSPGPKGDKGEPGGPGADGVPGKDGPRGPTGPIGPPGPAGQPGDKGEGGAPGLPGIAGPRGSPGERGETGPPGPAGFPGAPGQNGEPGGKGERGAPGEKGEGGPPGVAGPPGGSGPAGPPGPQGVKGERGSPGGPGAAGFPGARGLPGPPGSNGNPGPPGPSGSPGKDGPPGPAGNTGAPGSPGVSGPKGDAGQPGEKGSPGAQGPPGAPGPLGIAGITGARGLAGPPGMPGPRGSPGPQGVKGESGKPGANGLSGERGPPGPQGLPGLAGTAGEPGRDGNPGSDGLPGRDGSPGGKGDRGENGSPGAPGAPGHPGPPGPVGPAGKSGDRGESGPAGPAGAPGPAGSRGAPGPQGPRGDKGETGERGAAGIKGHRGFPGNPGAPGSPGPAGQQGAIGSPGPAGPRGPVGPSGPPGKDGTSGHPGPIGPPGPRGNRGERGSEGSPGHPGQPGPPGPPGAPGPCCGGVGAAAIAGIGGEKAGGFAPYYG

— article PMC10495343 (2023)
